B1: Transcription factor HY5-like (Arabidopsis thaliana (Mouse-ear cress)), Q8W191-1 (parent)
chain: MSLQRPNGNSSSSSSHKKHKTEESDEELLMVPDMEAAGSTCVLSSSADDGVNNPELDQTQNGVSTAKRRRGRNPVDKEYRSLKRLLRNRVSAQQARERKKVYVSDLESRANELQNNNDQLEEKISTLTNENTMLRKMLINTRPKTDDNH
partner: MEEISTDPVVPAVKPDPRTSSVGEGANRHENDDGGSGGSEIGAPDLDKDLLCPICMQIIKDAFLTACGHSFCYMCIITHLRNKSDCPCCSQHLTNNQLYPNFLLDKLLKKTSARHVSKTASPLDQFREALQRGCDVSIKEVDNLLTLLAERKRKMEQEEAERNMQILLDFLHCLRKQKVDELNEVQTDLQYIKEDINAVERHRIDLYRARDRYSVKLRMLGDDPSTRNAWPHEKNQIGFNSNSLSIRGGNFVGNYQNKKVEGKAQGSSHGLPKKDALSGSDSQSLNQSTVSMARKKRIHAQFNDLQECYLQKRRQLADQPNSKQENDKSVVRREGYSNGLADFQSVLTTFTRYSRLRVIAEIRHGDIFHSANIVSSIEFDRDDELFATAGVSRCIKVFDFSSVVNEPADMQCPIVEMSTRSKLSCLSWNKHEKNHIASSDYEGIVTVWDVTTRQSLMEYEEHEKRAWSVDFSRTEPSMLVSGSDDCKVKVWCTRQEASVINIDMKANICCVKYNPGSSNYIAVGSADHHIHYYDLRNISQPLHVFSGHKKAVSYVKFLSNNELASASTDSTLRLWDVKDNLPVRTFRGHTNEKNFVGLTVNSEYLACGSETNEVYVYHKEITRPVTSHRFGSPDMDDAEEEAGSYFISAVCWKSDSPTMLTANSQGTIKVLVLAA
B2: E3 ubiquitin-protein ligase COP1 (Arabidopsis thaliana (Mouse-ear cress)), P43254 (parent)
chain: B1 partner
partner: B1 chain

Variants of: B1
Settings: with cop1_arath COP1, P43254

Effect of a mutation on the interaction, decreasing interaction:
MSLQRPNGNSSSSSSHKKHKTEESDEELLMAADMEAAGSTCVLSSSADDGVNNPELDQTQNGVSTAKRRRGRNPVDKEYRSLKRLLRNRVSAQQARERKKVYVSDLESRANELQNNNDQLEEKISTLTNENTMLRKMLINTRPKTDDNH [V31A;P32A]

Variants of: B2
Settings: with HYH, Q8W191-1

Effect of a mutation on the interaction, decreasing interaction:
K422E
R465E
W467A
G524E
K550E

— IntAct's records for PubMed 12023303
